This note sets out measurements from publication PMC11415397, “The Alpha-Synuclein Gene (SNCA) is a Genomic Target of Methyl-CpG Binding Protein 2 (MeCP2)—Implications for Parkinson’s Disease and Rett Syndrome”.

Series [1] addresses T1, MeCP2 R255X (UniProt P51608 1-254). Kind of series: EMSA; strongest shift, already at 30 nM; 10 mM Tris pH 7.5, 1 mM EDTA, 100 mM KCl, 100 uM DTT, 5% glycerol, 10 ug/ml BSA, 30 min room temperature; 50 fmol probe in 5 ul; MeCP2 30-75 (nmol in Methods and legend, nM in Results). Particulars: protein: recombinant; tags: His; label: IRDye700 at 5' of LUEGO (S27); three strands: S27 and S25 lie side by side (nick) on S26; blunt.

The next series concerns the target MeCP2 wild type (UniProt P51608 1-486). Kind of series: EMSA; shift from 30 nM; 10 mM Tris pH 7.5, 1 mM EDTA, 100 mM KCl, 100 uM DTT, 5% glycerol, 10 ug/ml BSA, 30 min room temperature; 50 fmol probe in 5 ul; MeCP2 30-75 (nmol in Methods and legend, nM in Results). Particulars: protein: recombinant; tags: His; label: IRDye700 at 5' of LUEGO (S27); three strands: S27 and S23 lie side by side (nick) on S24; blunt. For orientation: In EMSA bound probe runs differently from free probe, usually more slowly.

Series [2] has as its target T1, MeCP2 R255X. The description is as above. Particulars: protein: recombinant; tags: His; label: IRDye700 at 5' of LUEGO (S27); three strands: S27 and S23 lie side by side (nick) on S24; blunt.

B1: SNCA intron 1 CpG2 probe, methylated (dsDNA)
DNA 1: GTGCCCTGGTCTGG
DNA 2: GCTGAGAGATTAGGCTGCTTCTCCGGGATCCGC
DNA 3: GCGGATCCCGGAGAAGCAGCCTAATCTCTCAGCCCAGACCAGGGCAC
modifications: CpG 5mC, in vitro methylated (enzyme for the probe not stated in EMSA section)
B1: the binding result with MeCP2 R255X [1] is “binds”.

B2: SNCA intron 1 CpG1 probe, methylated (dsDNA)
DNA 1: GTGCCCTGGTCTGG
DNA 2: CTGGCTTTCGTCCTGCTTCTGATATTCCCTTCTC
DNA 3: GAGAAGGGAATATCAGAAGCAGGACGAAAGCCAGCCAGACCAGGGCAC
modifications: CpG 5mC, in vitro methylated (enzyme for the probe not stated in EMSA section)
Take B2: the binding result with MeCP2 wild type and with MeCP2 R255X [2] was “binds” in each case.
